For experiment [1], the target named is T1, human calcitonin receptor (human, UniProt P30988 25-474).
T1 construct: whole, on cells; also called hCTR; hCT
T1 sequence (looked up): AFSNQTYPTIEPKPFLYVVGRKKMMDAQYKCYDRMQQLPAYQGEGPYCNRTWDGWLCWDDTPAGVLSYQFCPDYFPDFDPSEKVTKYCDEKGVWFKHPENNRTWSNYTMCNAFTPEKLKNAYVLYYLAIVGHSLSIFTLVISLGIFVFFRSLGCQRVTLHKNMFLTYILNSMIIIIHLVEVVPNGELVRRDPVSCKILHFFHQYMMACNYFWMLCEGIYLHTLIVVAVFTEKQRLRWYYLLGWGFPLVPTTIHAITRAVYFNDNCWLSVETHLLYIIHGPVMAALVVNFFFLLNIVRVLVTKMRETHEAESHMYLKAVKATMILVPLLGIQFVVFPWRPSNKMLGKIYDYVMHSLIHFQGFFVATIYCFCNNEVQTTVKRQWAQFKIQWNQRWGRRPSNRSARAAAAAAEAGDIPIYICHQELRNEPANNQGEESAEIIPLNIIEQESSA
The experiment in a line: ratio of IC50 at hCTR to IC50 at the human amylin receptor (reference). Summed up: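 Competition binding by SPA with cell membranes (35 ng/μL) and SPA beads in 50 mM Hepes pH 7.4 with 1 mM CaCl2, 5 mM MgCl2, 0.1% OA and 0.02% Tween20. Incubated 120 min at 25 °C with shaking, then counted.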

In experiment [2] the target is T1, human calcitonin receptor. The experiment in a line: SPA competition binding, membranes with human calcitonin receptor, displacement of 125I-calcitonin (Assay VII). Summed up: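 BHK hCTR membranes 35 ng/μL + SPA beads 0.05 mg/well; buffer 50 mM Hepes pH 7.4, 1 mM CaCl2, 5 mM MgCl₂, 0.1% OA, 0.02% Tween20. 120 min, 25° C., shaking. Scintillation count; IC50 by one-site binding competition.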

Numbered stars: 1 amine (or outer) side, 2 acyl side, 3 side chain; on linkers, the order of the positions; unused ones are H or OH. Bridge positions count the residues as written; N and C are the ends. Side chains are listed from the residue outwards. Ends that are not written are not given here. * marks the point of attachment. C20 diacid = O=C(O)CCCCCCCCCCCCCCCCCCC(=O)*; γGlu = O=C(O)[C@H](CCC(=O)[*:2])N[*:1]; AEEA = NCCOCCOCC(=O)O

B1: N^α1N^α1-[(4S)-4-carboxy-4-(19-carboxynonadecanoylamino)butanoyl]-[Glu14,Arg17,Pro21,Pro27,Glu35]-h-amylin (peptide)
peptide: {C20 diacid-γGlu}-KCNTATCATQRLAEFLRHSSPNFGAIPSSTNVGSETY-NH2
modifications: disulfide 2-7
SMILES: CC[C@H](C)[C@H](NC(=O)[C@H](C)NC(=O)CNC(=O)[C@H](Cc1ccccc1)NC(=O)[C@H](CC(N)=O)NC(=O)[C@@H]1CCCN1C(=O)[C@H](CO)NC(=O)[C@H](CO)NC(=O)[C@H](Cc1c[nH]cn1)NC(=O)[C@H](CCCNC(=N)N)NC(=O)[C@H](CC(C)C)NC(=O)[C@H](Cc1ccccc1)NC(=O)[C@H](CCC(=O)O)NC(=O)[C@H](C)NC(=O)[C@H](CC(C)C)NC(=O)[C@H](CCCNC(=N)N)NC(=O)[C@H](CCC(N)=O)NC(=O)[C@@H](NC(=O)[C@H](C)NC(=O)[C@@H]1CSSC[C@H](NC(=O)[C@H](CCCCN)NC(=O)CC[C@H](NC(=O)CCCCCCCCCCCCCCCCCCC(=O)O)C(=O)O)C(=O)N[C@@H](CC(N)=O)C(=O)N[C@@H]([C@@H](C)O)C(=O)N[C@@H](C)C(=O)N[C@@H]([C@@H](C)O)C(=O)N1)[C@@H](C)O)C(=O)N1CCC[C@H]1C(=O)N[C@@H](CO)C(=O)N[C@@H](CO)C(=O)N[C@H](C(=O)N[C@@H](CC(N)=O)C(=O)N[C@H](C(=O)NCC(=O)N[C@@H](CO)C(=O)N[C@@H](CCC(=O)O)C(=O)N[C@H](C(=O)N[C@@H](Cc1ccc(O)cc1)C(N)=O)[C@@H](C)O)C(C)C)[C@@H](C)O
notes: also called compound 22
As usually defined, the IC50 is the concentration needed to halve the response being measured. Regarding B1, the “Ratio hCT/hAmylin binding” value in experiment [1] was 12.3. For the same molecule, the IC50 in experiment [2] turned out to be 9.73 nM.

B2: N^ε1-[2-[2-[2-[[(4S)-4-carboxy-4-(19-carboxynonadecanoylamino)butanoyl]amino]ethoxy]ethoxy]acetyl]-[Arg17,Pro21,Pro27,Pro31]-h-amylin (peptide)
peptide: K([AEEA-γGlu-C20 diacid])CNTATCATQRLANFLRHSSPNFGAIPSSTPVGSNTY-NH2
modifications: disulfide 2-7; N-terminus assumed
SMILES: CC[C@H](C)[C@H](NC(=O)[C@H](C)NC(=O)CNC(=O)[C@H](Cc1ccccc1)NC(=O)[C@H](CC(N)=O)NC(=O)[C@@H]1CCCN1C(=O)[C@H](CO)NC(=O)[C@H](CO)NC(=O)[C@H](Cc1c[nH]cn1)NC(=O)[C@H](CCCNC(=N)N)NC(=O)[C@H](CC(C)C)NC(=O)[C@H](Cc1ccccc1)NC(=O)[C@H](CC(N)=O)NC(=O)[C@H](C)NC(=O)[C@H](CC(C)C)NC(=O)[C@H](CCCNC(=N)N)NC(=O)[C@H](CCC(N)=O)NC(=O)[C@@H](NC(=O)[C@H](C)NC(=O)[C@@H]1CSSC[C@H](NC(=O)[C@@H](N)CCCCNC(=O)COCCOCCNC(=O)CC[C@H](NC(=O)CCCCCCCCCCCCCCCCCCC(=O)O)C(=O)O)C(=O)N[C@@H](CC(N)=O)C(=O)N[C@@H]([C@@H](C)O)C(=O)N[C@@H](C)C(=O)N[C@@H]([C@@H](C)O)C(=O)N1)[C@@H](C)O)C(=O)N1CCC[C@H]1C(=O)N[C@@H](CO)C(=O)N[C@@H](CO)C(=O)N[C@H](C(=O)N1CCC[C@H]1C(=O)N[C@H](C(=O)NCC(=O)N[C@@H](CO)C(=O)N[C@@H](CC(N)=O)C(=O)N[C@H](C(=O)N[C@@H](Cc1ccc(O)cc1)C(N)=O)[C@@H](C)O)C(C)C)[C@@H](C)O
notes: also called compound 49
Take B2: the “Ratio hCT/hAmylin binding” value in experiment [1] is 10.8. For the same molecule, in experiment [2], the IC50 was 12.9 nM.

B3: N^ε1-[2-[2-[2-[[(4S)-4-carboxy-4-(19-carboxynonadecanoylamino)butanoyl]amino]ethoxy]ethoxy]acetyl]-[Arg17,Pro21,Pro27,Glu35]-h-amylin (peptide)
peptide: K([AEEA-γGlu-C20 diacid])CNTATCATQRLANFLRHSSPNFGAIPSSTNVGSETY-NH2
modifications: disulfide 2-7; N-terminus assumed
SMILES: CC[C@H](C)[C@H](NC(=O)[C@H](C)NC(=O)CNC(=O)[C@H](Cc1ccccc1)NC(=O)[C@H](CC(N)=O)NC(=O)[C@@H]1CCCN1C(=O)[C@H](CO)NC(=O)[C@H](CO)NC(=O)[C@H](Cc1c[nH]cn1)NC(=O)[C@H](CCCNC(=N)N)NC(=O)[C@H](CC(C)C)NC(=O)[C@H](Cc1ccccc1)NC(=O)[C@H](CC(N)=O)NC(=O)[C@H](C)NC(=O)[C@H](CC(C)C)NC(=O)[C@H](CCCNC(=N)N)NC(=O)[C@H](CCC(N)=O)NC(=O)[C@@H](NC(=O)[C@H](C)NC(=O)[C@@H]1CSSC[C@H](NC(=O)[C@@H](N)CCCCNC(=O)COCCOCCNC(=O)CC[C@H](NC(=O)CCCCCCCCCCCCCCCCCCC(=O)O)C(=O)O)C(=O)N[C@@H](CC(N)=O)C(=O)N[C@@H]([C@@H](C)O)C(=O)N[C@@H](C)C(=O)N[C@@H]([C@@H](C)O)C(=O)N1)[C@@H](C)O)C(=O)N1CCC[C@H]1C(=O)N[C@@H](CO)C(=O)N[C@@H](CO)C(=O)N[C@H](C(=O)N[C@@H](CC(N)=O)C(=O)N[C@H](C(=O)NCC(=O)N[C@@H](CO)C(=O)N[C@@H](CCC(=O)O)C(=O)N[C@H](C(=O)N[C@@H](Cc1ccc(O)cc1)C(N)=O)[C@@H](C)O)C(C)C)[C@@H](C)O
notes: also called compound 26
On to B3, for which the “Ratio hCT/hAmylin binding” value in experiment [1] was 47.5. The IC50 in experiment [2] was 25.3 nM.

B4: N^ε1-[2-[2-[2-[[(4S)-4-carboxy-4-(19-carboxynonadecanoylamino)butanoyl]amino]ethoxy]ethoxy]acetyl]-[Arg17,Pro21,Pro27]-h-amylin (peptide)
peptide: K([AEEA-γGlu-C20 diacid])CNTATCATQRLANFLRHSSPNFGAIPSSTNVGSNTY-NH2
modifications: disulfide 2-7; N-terminus assumed
SMILES: CC[C@H](C)[C@H](NC(=O)[C@H](C)NC(=O)CNC(=O)[C@H](Cc1ccccc1)NC(=O)[C@H](CC(N)=O)NC(=O)[C@@H]1CCCN1C(=O)[C@H](CO)NC(=O)[C@H](CO)NC(=O)[C@H](Cc1c[nH]cn1)NC(=O)[C@H](CCCNC(=N)N)NC(=O)[C@H](CC(C)C)NC(=O)[C@H](Cc1ccccc1)NC(=O)[C@H](CC(N)=O)NC(=O)[C@H](C)NC(=O)[C@H](CC(C)C)NC(=O)[C@H](CCCNC(=N)N)NC(=O)[C@H](CCC(N)=O)NC(=O)[C@@H](NC(=O)[C@H](C)NC(=O)[C@@H]1CSSC[C@H](NC(=O)[C@@H](N)CCCCNC(=O)COCCOCCNC(=O)CC[C@H](NC(=O)CCCCCCCCCCCCCCCCCCC(=O)O)C(=O)O)C(=O)N[C@@H](CC(N)=O)C(=O)N[C@@H]([C@@H](C)O)C(=O)N[C@@H](C)C(=O)N[C@@H]([C@@H](C)O)C(=O)N1)[C@@H](C)O)C(=O)N1CCC[C@H]1C(=O)N[C@@H](CO)C(=O)N[C@@H](CO)C(=O)N[C@H](C(=O)N[C@@H](CC(N)=O)C(=O)N[C@H](C(=O)NCC(=O)N[C@@H](CO)C(=O)N[C@@H](CC(N)=O)C(=O)N[C@H](C(=O)N[C@@H](Cc1ccc(O)cc1)C(N)=O)[C@@H](C)O)C(C)C)[C@@H](C)O
notes: also called compound 41
As to B4, the “Ratio hCT/hAmylin binding” value in experiment [1] turned out to be 49.9. In experiment [2], the concentration for half-maximal inhibition (IC50) came out at 21.3 nM.

B5: N^ε1-[2-[2-[2-(19-carboxynonadecanoylamino)ethoxy]ethoxy]acetyl]-[Arg17,Pro21,Pro27]-h-amylin (peptide)
peptide: K([AEEA-C20 diacid])CNTATCATQRLANFLRHSSPNFGAIPSSTNVGSNTY-NH2
modifications: disulfide 2-7; N-terminus assumed
SMILES: CC[C@H](C)[C@H](NC(=O)[C@H](C)NC(=O)CNC(=O)[C@H](Cc1ccccc1)NC(=O)[C@H](CC(N)=O)NC(=O)[C@@H]1CCCN1C(=O)[C@H](CO)NC(=O)[C@H](CO)NC(=O)[C@H](Cc1c[nH]cn1)NC(=O)[C@H](CCCNC(=N)N)NC(=O)[C@H](CC(C)C)NC(=O)[C@H](Cc1ccccc1)NC(=O)[C@H](CC(N)=O)NC(=O)[C@H](C)NC(=O)[C@H](CC(C)C)NC(=O)[C@H](CCCNC(=N)N)NC(=O)[C@H](CCC(N)=O)NC(=O)[C@@H](NC(=O)[C@H](C)NC(=O)[C@@H]1CSSC[C@H](NC(=O)[C@@H](N)CCCCNC(=O)COCCOCCNC(=O)CCCCCCCCCCCCCCCCCCC(=O)O)C(=O)N[C@@H](CC(N)=O)C(=O)N[C@@H]([C@@H](C)O)C(=O)N[C@@H](C)C(=O)N[C@@H]([C@@H](C)O)C(=O)N1)[C@@H](C)O)C(=O)N1CCC[C@H]1C(=O)N[C@@H](CO)C(=O)N[C@@H](CO)C(=O)N[C@H](C(=O)N[C@@H](CC(N)=O)C(=O)N[C@H](C(=O)NCC(=O)N[C@@H](CO)C(=O)N[C@@H](CC(N)=O)C(=O)N[C@H](C(=O)N[C@@H](Cc1ccc(O)cc1)C(N)=O)[C@@H](C)O)C(C)C)[C@@H](C)O
notes: also called compound 43
Consider B5, for which the “Ratio hCT/hAmylin binding” value in experiment [1] was determined as 34.7. Besides, the IC50 in experiment [2] amounted to 2.64 nM.

B6: N^ε1-[2-[2-[2-[[2-[2-[2-[[(4S)-4-carboxy-4-(19-carboxynonadecanoylamino)butanoyl]amino]ethoxy]ethoxy]acetyl]amino]ethoxy]ethoxy]acetyl]-[Arg17,Pro21,Pro27,Glu35 … (peptide)
peptide: K([AEEA-AEEA-γGlu-C20 diacid])CNTATCATQRLANFLRHSSPNFGAIPSSTNVGSETY-NH2
modifications: disulfide 2-7; N-terminus assumed
SMILES: CC[C@H](C)[C@H](NC(=O)[C@H](C)NC(=O)CNC(=O)[C@H](Cc1ccccc1)NC(=O)[C@H](CC(N)=O)NC(=O)[C@@H]1CCCN1C(=O)[C@H](CO)NC(=O)[C@H](CO)NC(=O)[C@H](Cc1c[nH]cn1)NC(=O)[C@H](CCCNC(=N)N)NC(=O)[C@H](CC(C)C)NC(=O)[C@H](Cc1ccccc1)NC(=O)[C@H](CC(N)=O)NC(=O)[C@H](C)NC(=O)[C@H](CC(C)C)NC(=O)[C@H](CCCNC(=N)N)NC(=O)[C@H](CCC(N)=O)NC(=O)[C@@H](NC(=O)[C@H](C)NC(=O)[C@@H]1CSSC[C@H](NC(=O)[C@@H](N)CCCCNC(=O)COCCOCCNC(=O)COCCOCCNC(=O)CC[C@H](NC(=O)CCCCCCCCCCCCCCCCCCC(=O)O)C(=O)O)C(=O)N[C@@H](CC(N)=O)C(=O)N[C@@H]([C@@H](C)O)C(=O)N[C@@H](C)C(=O)N[C@@H]([C@@H](C)O)C(=O)N1)[C@@H](C)O)C(=O)N1CCC[C@H]1C(=O)N[C@@H](CO)C(=O)N[C@@H](CO)C(=O)N[C@H](C(=O)N[C@@H](CC(N)=O)C(=O)N[C@H](C(=O)NCC(=O)N[C@@H](CO)C(=O)N[C@@H](CCC(=O)O)C(=O)N[C@H](C(=O)N[C@@H](Cc1ccc(O)cc1)C(N)=O)[C@@H](C)O)C(C)C)[C@@H](C)O
notes: also called compound 25
Regarding B6, the “Ratio hCT/hAmylin binding” value in experiment [1] is 56.5. Further, the IC50 in experiment [2] was 43.4 nM.
